These results are taken from publication PMC6286126, “A novel pathway of LPS uptake through syndecan-1 leading to pyroptotic cell death” (eLife, 2018).

The data set concerns the molecule itself. Description: native gel or EMSA; human SCGB3A2 10 µg on 0.8% agarose gel in TAE, Coomassie Brilliant Blue staining of the gel. In general terms: In EMSA bound probe runs differently from free probe, usually more slowly.

B1: recombinant human SCGB3A2 (C1) (natural protein, UniProt Q96PL1 22-93, looked up)
chain: FLINKVPLPVDKLAPLPLDNILPFMDPLKLLLKTLGISVEHLVEGLRKCVNELGPEASEAVKKLLEALSHLV
notes: recombinant human SCGB3A2, lot C1; also called hS2; source: recombinant; in house (APCBio Innovations), Cai et al., 2014
Take B1: the binding result was “binds”.
